Consider ten sequences from patent US20130116129.

In one series the test system is mouse IgG (Mus musculus). Put plainly: SELEX.
In series [1] the test system is rat IgG (Rattus norvegicus). Nature of the series: SELEX. Conditions: uppercase RNA, lowercase DNA.

In the series with mouse IgG (Mus musculus) (beads alone 136, p=0.024, 37 C), “CGAUAGGUGUUGAGGUGGGUCUCAGCGCUUGUUG [T1-GTGGGT]” yielded a binding signal of 730 reads.

“CGCCTCTCCGAGAGTGTAUUAACCACAUTCTUGGAGAGGUG [T3-ATTAACC]”: the binding signal in series [1] (below protein G bead background of 78) stood at 25 reads; in the series on mouse IgG (Mus musculus) (uppercase RNA, lowercase DNA, protein G beads 78, 150 mM NaCl, 10 mM MgCl2), 3120 reads.

Regarding “CGAUAGGUGUUGAGGGGUAUCUCAGCGCUUGUUG [T1-GGGTAT]”, in the series with mouse IgG (Mus musculus) (beads alone 37, p=0.039, 37 C), the binding signal worked out at 787 reads.

With “CGCCTCTCCGAGAGTGTAGGGCAUACAUTCTUGGAGAGGUG [T3-AGGGCAT]”, the binding signal came to 106 reads in series [1] (protein G beads 3) and 18 reads in the series on mouse IgG (Mus musculus) (uppercase RNA, lowercase DNA, protein G beads 3).

Take “CGAUAGGUGUUGAGUUGGUUCUCAGCGCUUGUUG [T1-TTGGTT]”: the binding signal in the series with mouse IgG (Mus musculus) (beads alone 23, p=0.048, 37 C) was determined as 713 reads.

Sequence “CGAUAGGUGUUGAGGUUGGUCUCAGCGCUUGUUG [T1-GTTGGT]” yielded a binding signal with mouse IgG (Mus musculus) (beads alone 25, p=0.035, 37 C) of 605 reads.

“CGAUAGGUGUUGAGGUGGAUCUCAGCGCUUGUUG [T1-GTGGAT]” showed a binding signal with mouse IgG (Mus musculus) (beads alone 24, p=0.014, 37 C, library assigned to SEQ 2 from six-base random region) of 1560 reads.

Turning to “CGAUAGGUGUUGAGUUCGAUCUCAGCGCUUGUUG [T1-TTCGAT]”, the binding signal in the series with mouse IgG (Mus musculus) (beads alone 44, p=0.019, 37 C) was determined as 548 reads.

In the series on mouse IgG (Mus musculus) (beads alone 155, p=0.037, 37 C), “CGAUAGGUGUUGAGGGCGAUCUCAGCGCUUGUUG [T1-GGCGAT]” registered a binding signal of 691 reads.

“CGAUAGGUGUUGAGUGGGCUCUCAGCGCUUGUUG [T1-TGGGCT]” showed a binding signal in the series with mouse IgG (Mus musculus) (beads alone 78, p=0.014, before selection 201, p=0.123, 37 C) of 605 reads.
